Measured values as given in PMC8584152, “The Bacterial Amyloids Phenol Soluble Modulins from Staphylococcus aureus Catalyze Alpha-Synuclein Aggregation” (International Journal of Molecular Sciences, 2021).

B1: PSMα3 sequence FVAKLFKFFK (10-residue array peptide) (peptide)
peptide: FVAKLFKFFK
notes: source: 10-residue peptide immobilized on a microarray chip; maker not clearly stated
B2: PSMα2 sequence GIIKFIKGLI (10-residue array peptide) (peptide)
peptide: GIIKFIKGLI
notes: as for B1
B3: PSMα2 sequence IIAGIIKFIK (10-residue array peptide) (peptide)
peptide: IIAGIIKFIK
notes: as for B1

Target: Human wildtype α-syn, Alexa-fluor488-labelled (human, UniProt P37840 1-140)
Test: peptide or protein array
Settings: both partners purified

Binder | binding result
B1 | binds
B2 | binds
B3 | binds
